From article PMC3088709, “Phosphorylation of the Yeast γ-Tubulin Tub4 Regulates Microtubule Function” (PLoS ONE, 2011)

Biological target: T1, Spc97-3HA (S. cerevisiae, UniProt P38863 1-823)
T1 construct: Spc97, budding yeast; tagged with 3HA in the TUB4-AID strain; source: S. cerevisiae (TUB4-AID SPC97-3HA strain), in lysate
T1 sequence (looked up): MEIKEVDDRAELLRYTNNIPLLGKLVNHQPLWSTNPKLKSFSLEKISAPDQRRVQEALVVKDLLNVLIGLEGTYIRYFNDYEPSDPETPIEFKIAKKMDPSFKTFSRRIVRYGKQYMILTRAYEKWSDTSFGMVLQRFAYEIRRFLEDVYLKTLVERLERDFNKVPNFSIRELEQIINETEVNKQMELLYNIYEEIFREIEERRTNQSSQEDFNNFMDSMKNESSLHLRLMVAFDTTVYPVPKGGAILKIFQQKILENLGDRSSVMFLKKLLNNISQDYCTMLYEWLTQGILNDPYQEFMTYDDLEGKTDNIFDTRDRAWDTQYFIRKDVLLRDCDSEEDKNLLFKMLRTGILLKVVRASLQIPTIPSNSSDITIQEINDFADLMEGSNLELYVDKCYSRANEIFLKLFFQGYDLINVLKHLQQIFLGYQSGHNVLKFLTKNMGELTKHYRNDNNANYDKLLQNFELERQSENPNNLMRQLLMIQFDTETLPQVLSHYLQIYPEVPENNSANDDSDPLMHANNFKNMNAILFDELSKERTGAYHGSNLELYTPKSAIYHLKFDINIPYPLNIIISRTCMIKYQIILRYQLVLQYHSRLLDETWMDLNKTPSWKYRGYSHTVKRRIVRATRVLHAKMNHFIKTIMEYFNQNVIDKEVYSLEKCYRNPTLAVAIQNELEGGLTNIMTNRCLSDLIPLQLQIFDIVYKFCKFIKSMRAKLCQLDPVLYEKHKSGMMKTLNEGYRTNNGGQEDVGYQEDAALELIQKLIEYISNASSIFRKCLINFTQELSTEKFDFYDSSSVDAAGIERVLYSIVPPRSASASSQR
Test: co-IP; anti-HA immunoprecipitation of Spc97-3HA from lysates of TUB4-AID SPC97-3HA cells carrying pRS305 with TUB4, tub4-S74E, tub4-S100E or tub4-S360D, after 2 h of 0.5 mM IAA at 30°C to deplete Tub4-AID; blots with anti-Tub4, anti-Spc98, anti-Spc110 and anti-HA, normalised to precipitated Spc97-3HA
Conditions: partners not purified

amount in complexes with Spc97-3HA relative to WT Tub4: ~75 % of WT Tub4
B1: Tub4-S74E (natural protein, S. cerevisiae, UniProt P53378 1-473, looked up)
chain: MGGEIITLQAGQCGNHVGKFLWSQLAKEHAIGTDGLSQLPDSSTERDDDTKPFFRENSRNKFTPRAIMMDSEPEVIADVENTFRGFFDPRNTWVASDGASAGNSWANGYDIGTRNQDDILNKIDKEIDSTDNFEGFQLLHSVAGGTGSGLGSNLLEALCDRYPKKILTTYSVFPARSSEVVVQSYNTILALRRLIEDSDATVVFDNASLLNISGKVFRNPNIDLQHTNQLISTIISSVTNSIRFPSYMYSSMSSIYSTLIPSPELHFLSPSFTPFTSDYIHDDIAHKGHSSYDVMLDLLDPSNSLVSTAMNNPTYFNVYNTIIGNVEPRQISRAMTKLQQRIKFPSWSSSAMHVNIGRRSPYLPLQPNENEVSGMMLSNMSTVVNVFENACNTFDKVFAKGAFLNNYNVGDLFQSMQNVQDEFAESREVVQSLMEDYVAAEQDSYLDDVLVDDENMVGELEEDLDADGDHKLV
notes: Tub4, gamma-tubulin of budding yeast, phospho-mimicking mutant; source: S. cerevisiae, from integrated pRS305-tub4-S74E, in lysate
